Measurements as given in US20220289850 (published 2022).
Numbering of substitutions follows the chain as printed. Several values for one entry are separate records, joined by “and”; a condition that tells them apart may be missing. Equal values may be shown once. Each block holds one binder with its values, some of them ahead of it.

Legend:
[1] = molecular target: T1, human integrin avb8 (human); assay: SPR
T1 chain 1: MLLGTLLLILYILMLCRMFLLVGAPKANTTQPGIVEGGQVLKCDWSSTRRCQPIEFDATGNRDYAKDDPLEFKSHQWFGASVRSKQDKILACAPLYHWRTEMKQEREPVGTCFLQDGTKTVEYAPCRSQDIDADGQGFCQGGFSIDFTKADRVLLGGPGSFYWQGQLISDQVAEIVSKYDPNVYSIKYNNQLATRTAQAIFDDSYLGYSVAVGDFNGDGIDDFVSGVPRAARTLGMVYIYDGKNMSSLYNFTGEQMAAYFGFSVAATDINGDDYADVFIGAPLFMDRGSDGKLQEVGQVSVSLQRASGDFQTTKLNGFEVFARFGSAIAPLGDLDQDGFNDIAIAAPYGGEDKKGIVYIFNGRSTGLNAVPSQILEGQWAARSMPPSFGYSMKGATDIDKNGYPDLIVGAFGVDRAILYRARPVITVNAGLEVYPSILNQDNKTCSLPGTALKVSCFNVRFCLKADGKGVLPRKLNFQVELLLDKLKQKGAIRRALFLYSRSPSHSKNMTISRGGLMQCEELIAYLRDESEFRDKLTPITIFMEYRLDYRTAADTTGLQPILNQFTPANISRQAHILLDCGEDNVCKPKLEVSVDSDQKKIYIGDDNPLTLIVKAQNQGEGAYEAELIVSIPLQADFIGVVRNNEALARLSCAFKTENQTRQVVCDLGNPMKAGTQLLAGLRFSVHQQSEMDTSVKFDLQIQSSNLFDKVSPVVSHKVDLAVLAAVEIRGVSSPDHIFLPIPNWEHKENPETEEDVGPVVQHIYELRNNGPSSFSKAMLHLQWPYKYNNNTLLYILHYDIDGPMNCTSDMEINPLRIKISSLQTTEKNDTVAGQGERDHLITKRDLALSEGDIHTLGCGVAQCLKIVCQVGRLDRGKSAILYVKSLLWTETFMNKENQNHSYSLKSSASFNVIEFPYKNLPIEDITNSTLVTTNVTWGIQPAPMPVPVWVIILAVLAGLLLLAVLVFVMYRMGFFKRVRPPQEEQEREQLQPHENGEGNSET
T1 chain 2: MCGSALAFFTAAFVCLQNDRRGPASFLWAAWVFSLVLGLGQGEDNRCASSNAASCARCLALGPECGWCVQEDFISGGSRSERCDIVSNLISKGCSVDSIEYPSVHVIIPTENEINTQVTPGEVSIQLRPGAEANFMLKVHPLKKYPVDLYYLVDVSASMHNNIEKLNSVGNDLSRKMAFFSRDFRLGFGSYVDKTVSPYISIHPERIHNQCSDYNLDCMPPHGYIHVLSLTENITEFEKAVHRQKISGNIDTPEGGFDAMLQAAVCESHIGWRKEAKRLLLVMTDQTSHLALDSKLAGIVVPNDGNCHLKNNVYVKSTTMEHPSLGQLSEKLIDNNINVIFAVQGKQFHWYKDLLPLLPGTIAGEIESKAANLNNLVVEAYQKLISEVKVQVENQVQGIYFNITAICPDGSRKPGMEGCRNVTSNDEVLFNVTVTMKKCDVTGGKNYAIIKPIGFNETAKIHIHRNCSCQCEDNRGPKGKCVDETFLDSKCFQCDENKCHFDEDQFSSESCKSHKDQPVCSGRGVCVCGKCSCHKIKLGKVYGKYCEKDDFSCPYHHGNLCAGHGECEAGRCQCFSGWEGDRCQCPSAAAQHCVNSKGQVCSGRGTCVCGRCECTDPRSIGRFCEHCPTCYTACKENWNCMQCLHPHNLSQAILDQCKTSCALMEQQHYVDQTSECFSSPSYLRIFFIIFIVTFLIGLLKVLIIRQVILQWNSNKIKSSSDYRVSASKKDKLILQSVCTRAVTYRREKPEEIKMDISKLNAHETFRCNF

[2] = molecular target: T1, human integrin avb8; assay: SPR 25C
[3] = molecular target: C1q (human, UniProt P02745); assay: other, up to 30 ug/mL
C1q, sequence (P02745 23-245, chain 1 of 3): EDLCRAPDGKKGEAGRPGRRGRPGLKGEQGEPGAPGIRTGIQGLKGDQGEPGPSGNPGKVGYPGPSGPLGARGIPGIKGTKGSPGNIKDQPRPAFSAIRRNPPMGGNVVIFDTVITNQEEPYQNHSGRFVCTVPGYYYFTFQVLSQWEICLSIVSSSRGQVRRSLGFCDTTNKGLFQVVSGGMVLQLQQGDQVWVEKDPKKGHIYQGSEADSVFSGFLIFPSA
C1q, sequence (P02746 28-253, chain 2 of 3, further chain): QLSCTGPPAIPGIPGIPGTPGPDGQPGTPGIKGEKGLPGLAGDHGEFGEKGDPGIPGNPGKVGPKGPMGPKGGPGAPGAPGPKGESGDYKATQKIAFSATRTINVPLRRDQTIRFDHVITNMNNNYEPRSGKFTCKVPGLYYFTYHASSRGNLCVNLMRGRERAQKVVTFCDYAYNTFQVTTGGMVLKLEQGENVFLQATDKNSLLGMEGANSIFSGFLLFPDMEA
C1q, sequence (P02747 29-245, chain 3 of 3, further chain): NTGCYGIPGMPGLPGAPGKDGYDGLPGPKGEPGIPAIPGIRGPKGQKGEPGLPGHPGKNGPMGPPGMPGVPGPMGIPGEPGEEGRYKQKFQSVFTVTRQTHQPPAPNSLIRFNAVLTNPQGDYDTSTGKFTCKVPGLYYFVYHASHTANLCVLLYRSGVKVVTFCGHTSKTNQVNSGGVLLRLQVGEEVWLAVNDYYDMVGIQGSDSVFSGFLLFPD

B2: ADWA11 VH05/VK01 (VH05-2_VK01) Fab (antibody, V domains shown)
VH: EVQLVESGGGLVQPGGSLRLSCAASGFNIKDYYMNWVRQAPGKGLEWVGWIDPDNGNTIYDPKFQGRFTISADTSKNSAYLQMNSLRAEDTAVYYCARRLLMDYWGQGTLVTVSS
VL: DIQMTQSPSSLSASVGDRVTITCRSTKSLLHFNGNTYLFWYQQKPGKAPKRLIYYMSNLASGVPSRFSGSGSGTDFTLTISSLQPEDFATYYCMQSLEYPFTFGQGTKVEIK
- Kd [1]: < 0.1 nM
- Kd [2]: 0.209 nM and 0.118 nM

B3: ADWA11 2.4 Fab (antibody, V domains shown)
VH: B2 VH with N55Q, D61E
VL: B2 VL with L30S, N58S, M94Q, Q105G
- Kd [2]: < 0.2 nM

Results, then the binder that gave them:

- Kd [1]: 0.536 nM
- Kd [2]: 0.536 nM
B1: Mouse hybridoma ADWA-11 Fab (antibody, V domains shown)
VH: EVQLQQSGAELVRPGAFVKLSCKASGFNIKDYYMNWVLQRPEQGLEWIGWIDPDNGNTIYDPKFQGKASITADTSSNTAYLQLSSLTSEDTAVYYCARRLLMDYWGQGTSVTVSS
VL: DIVMTQAAPSVPVTPGESVSISCRSTKSLLHFNGNTYLFWFLQRPGQSPQRLIYYMSNLASGVPDRFSGRGSGTDFTLRISRVEAEDVGVYYCMQSLEYPFTFGTGTKLEIK

- binding result [3]: no binding
B4: ADWA11 2.4 IgG (antibody)
chain 1: EVQLVESGGGLVQPGGSLRLSCAASGFNIKDYYMNWVRQAPGKGLEWVGWIDPDQGNTIYEPKFQGRFTISADTSKNSAYLQMNSLRAEDTAVYYCARRLLMDYWGQGTLVTVSSASTKGPSVFPLAPSSKSTSGGTAALGCLVKDYFPEPVTVSWNSGALTSGVHTFPAVLQSSGLYSLSSVVTVPSSSLGTQTYICNVNHKPSNTKVDKKVEPKSCDKTHTCPPCPAPEAAGAPSVFLFPPKPKDTLMISRTPEVTCVVVDVSHEDPEVKFNWYVDGVEVHNAKTKPREEQYNSTYRVVSVLTVLHQDWLNGKEYKCKVSNKALPAPIEKTISKAKGQPREPQVYTLPPSREEMTKNQVSLTCLVKGFYPSDIAVEWESNGQPENNYKTTPPVLDSDGSFFLYSKLTVDKSRWQQGNVFSCSVMHEALHNHYTQKSLSLSPGK
chain 2: DIQMTQSPSSLSASVGDRVTITCRSTKSLSHFNGNTYLFWYQQKPGKAPKRLIYYMSSLASGVPSRFSGSGSGTDFTLTISSLQPEDFATYYCQQSLEYPFTFGGGTKVEIKRTVAAPSVFIFPPSDEQLKSGTASVVCLLNNFYPREAKVQWKVDNALQSGNSQESVTEQDSKDSTYSLSSTLTLSKADYEKHKVYACEVTHQGLSSPVTKSFNRGEC
